Four substances from patent publication US6632626 can be followed below.

For data set [1], the target named is rat brain farnesyl:protein transferase (rat) (UniProt Q04631). Nature of the data set: cell-based or functional assay.

For the substance “CVIM with glutamic acid at the A2 position (peptide)”, in data set [1], the fold decline of affinity for the enzyme was > 50 fold. In turn, “CVIM with glycine at the A2 position (peptide)” registered a concentration giving 50% inhibition (farnesyl transfer to p21^H-ras) in data set [1] of 8 µM. “CVIM with lysine at the A2 position (peptide)”: in data set [1], the fold decline of affinity for the enzyme was > 50 fold and the fold decrease of affinity for the enzyme against CVIM is > 30 fold. With rat brain farnesyl:protein transferase, in the data set on biotinylated KTSCVIM, the “farnesylation of the peptide (substrate activity)” value is recorded as “The studies with the biotinyated heptapeptide ( FIG. 12B ) confirm that at least some of the short peptides act as substrates for the enzyme”.
